From patent US20100222559, “NUCLEIC ACID MOLECULE CAPABLE OF BINDING TO RABBIT-DERIVED lgG ANTIBODY” (published 2010)

How the values were obtained:
[1] = tested on: rabbit anti-mouse IgG antibody (Oryctolagus cuniculus); assay: SPR; conditions: RNA with 5' A24 extension captured on biotin-dT24 SA chip; 25 C
[2] = tested on: rabbit anti-GST antibody (IgG) (Oryctolagus cuniculus); assay: filter; conditions: 20 nM RNA, 100 nM protein
mouse IgG (Mus musculus) = assay: filter; conditions: specificity control, 100 nM protein
[3] = tested on: rabbit anti-GST IgG + glutathione-S-transferase (mixture) (Oryctolagus cuniculus / Schistosoma japonicum); assay: filter; conditions: 100 nM GST + 100 nM anti-GST IgG
[4] = tested on: rabbit anti-mouse IgG antibody (Oryctolagus cuniculus); assay: filter; conditions: 20 nM RNA, 100 nM protein, 5 mM MgCl2, RT
goat IgG (Capra hircus) = assay: filter; conditions: specificity control, 100 nM protein
[5] = molecular target: glutathione-S-transferase (GST) (Schistosoma japonicum, UniProt P08515 P08515:2-218); assay: filter; specificity control, 100 nM protein; conditions: tags: prepared in laboratory from GE vector; chain copies: 2; label: 32P (filter assay)
Description: (§1) The RNAs (20 nM) set forth in SEQ ID NOS: 1 to 5, and the materials (100 nM each) shown in “Material List” below, were incubated in a binding buffer, and then, their binding strength was measured in accordance with the methods described in “Radiolabeling” and “Binding Experiment” below.
(§2) The resulting mixture was introduced onto a filter (trade name: MF-membrane filter, manufactured by Millipore) by way of suctioning it with a suction device, and then, the filter was washed with a binding buffer that was 20 times the volume of the mixture. The radiation intensity of the filter obtained in this manner was measured with a Bio-Imaging Analyzer BAS-2500 (using, as an imaging plate, BAS-MS2040 manufactured by Fuji Film Co., Ltd.) manufactured by Fuji Film Co., Ltd. The radiation intensity was visualized with Image Reader (Fuji Film Co., Ltd.), and the obtained data were converted into numerical values with Image Gauge ver. 4.0 (Fuji Film Co., Ltd.).

bovine serum albumin = bovine serum albumin (Bos taurus, UniProt P02769 P02769:25-607); assay: filter; specificity control, 100 nM protein; buffer only 0.3%; conditions: tags: SIGMA; label: 32P (filter assay)
Description: as §1, §2

glutathione-S-transferase (GST), sequence (P08515 2-218, one chain of several): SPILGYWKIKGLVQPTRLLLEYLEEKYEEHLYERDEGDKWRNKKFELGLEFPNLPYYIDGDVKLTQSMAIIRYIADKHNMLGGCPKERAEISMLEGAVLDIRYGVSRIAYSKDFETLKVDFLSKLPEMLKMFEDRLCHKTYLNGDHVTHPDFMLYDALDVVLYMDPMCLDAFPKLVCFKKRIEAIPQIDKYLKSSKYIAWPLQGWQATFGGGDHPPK
bovine serum albumin, sequence (P02769 25-607, one chain of several): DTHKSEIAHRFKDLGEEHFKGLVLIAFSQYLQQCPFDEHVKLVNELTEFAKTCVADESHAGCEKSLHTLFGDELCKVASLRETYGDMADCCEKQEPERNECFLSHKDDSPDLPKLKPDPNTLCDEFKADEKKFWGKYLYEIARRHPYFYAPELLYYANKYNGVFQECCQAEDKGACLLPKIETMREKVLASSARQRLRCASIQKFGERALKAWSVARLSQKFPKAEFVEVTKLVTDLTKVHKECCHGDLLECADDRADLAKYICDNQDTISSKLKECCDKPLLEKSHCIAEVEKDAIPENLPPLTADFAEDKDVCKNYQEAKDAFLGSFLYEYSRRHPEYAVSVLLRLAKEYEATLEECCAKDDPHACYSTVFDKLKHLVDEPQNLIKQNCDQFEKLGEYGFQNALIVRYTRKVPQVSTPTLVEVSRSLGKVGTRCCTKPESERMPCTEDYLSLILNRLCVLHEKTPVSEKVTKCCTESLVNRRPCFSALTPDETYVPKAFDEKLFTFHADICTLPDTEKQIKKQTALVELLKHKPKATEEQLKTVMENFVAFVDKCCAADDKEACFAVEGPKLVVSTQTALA

Molecule | Kd [1] [nM] | binding signal (mouse IgG (Mus musculus)) [% bound] | binding signal [3] [% bound] | binding signal (goat IgG (Capra hircus)) [% bound] | binding signal ([2]; buffer only 0.3%) [% bound] | binding signal [4] [% bound] | binding signal [5] [% bound] | binding signal (bovine serum albumin) [% bound] | further results
GGGAGAAUUCCGACCAGAAGAAGUUCGAUACGCCGUGGGGUGACGUUGGCUGCCCUUUCCUCUCUCCUCCUUCUUCU [SEQ ID NO: 1 RNA aptamer] | 0.013 | 0.6 | 13.6 | 0.8 | – | – | – | – | binding signal ([2]; buffer only 0.2%): 19.1 % bound; binding signal ([4]; 50 mM HEPES pH 7.4, 150 mM NaCl): 19.1 % bound
GGGAGAAUUCCGACCAGAAGCAAAUUGCCGGGCCUUGGAAGCCAAGUCGCUUUCCUCUCUCCUCCUUCUUCU [SEQ ID NO: 3 RNA aptamer] | 118 | 1.8 | 14.4 | 1 | 20.9 | 20.9 | – | – | –
GGGAGAAUUCCGACCAGAAGCGCAAGCCGGCCCUUGGAAGGCUAGUCGGUCUUUCCUCUCUCCUCCUUCUUCU [SEQ ID NO: 4 RNA aptamer] | 103 | 0.5 | 20.7 | 0.3 | 23.4 | 23.4 | – | – | –
GGGAGAAUUCCGACCAGAAGUUCGAUACGCCGUGGGGUGACGUUGGCUACCUUUCCUCUCUCCUCCUUCUUCU [SEQ ID NO: 5 RNA aptamer] | 0.0147 | 0.5 | 48.8 | 0.3 | 58.1 | 58.1 | – | – | –
GGGAGAAUUCCGACCAGAAGUUUUUAAACCGCGCCUUGGAAGCGUACGUUGGCCUUUCCUCUCUCCUCCUUCUUCU [SEQ ID NO: 2 RNA aptamer] | 51.5 | 0.5 | 14.2 | 0.7 | – | 24.6 | – | – | binding signal ([2]; buffer only 0.4%): 24.6 % bound
SEQ ID NO: 3 RNA aptamer (ssRNA) RNA: GGGAGAAUUCCGACCAGAAGCAAAUUGCCGGGCCUUGGAAGCCAAGUCGCUUUCCUCUCUCCUCCUUCUUCU | – | – | – | – | – | – | 0.6 | 1 | –
SEQ ID NO: 2 RNA aptamer (ssRNA) RNA: GGGAGAAUUCCGACCAGAAGUUUUUAAACCGCGCCUUGGAAGCGUACGUUGGCCUUUCCUCUCUCCUCCUUCUUCU | – | – | – | – | – | – | 0.6 | – | –
SEQ ID NO: 1 RNA aptamer (ssRNA) RNA: GGGAGAAUUCCGACCAGAAGAAGUUCGAUACGCCGUGGGGUGACGUUGGCUGCCCUUUCCUCUCUCCUCCUUCUUCU | – | – | – | – | – | – | 0.7 | – | –
SEQ ID NO: 4 RNA aptamer (ssRNA) RNA: GGGAGAAUUCCGACCAGAAGCGCAAGCCGGCCCUUGGAAGGCUAGUCGGUCUUUCCUCUCUCCUCCUUCUUCU | – | – | – | – | – | – | 0.4 | 0.4 | –
SEQ ID NO: 5 RNA aptamer (ssRNA) RNA: GGGAGAAUUCCGACCAGAAGUUCGAUACGCCGUGGGGUGACGUUGGCUACCUUUCCUCUCUCCUCCUUCUUCU | – | – | – | – | – | – | 0.6 | 0.9 | –
